Several values for one entry are separate records, joined by “and”; a condition that tells them apart may be missing. Identical values can stand only once.
Tests used:
[1] = molecular target: FHCS-4 (RSV strain A2) (UniProt P03420); assay: ELISA; F coated 2500 ng/ml; stored -80° C.
[2] = molecular target: FHCS-2 (RSV strain A2) (UniProt P03420); assay: ELISA; F coated 2500 ng/ml; stored -80° C.
[3] = molecular target: FHCS-1 (RSV strain A2) (UniProt P03420); assay: ELISA; F coated 2500 ng/ml; stored -80° C.
[4] = molecular target: FHCS-4 (RSV strain A2) (UniProt P03420); assay: ELISA; F coated 10000 ng/ml; stored 37° C. 4 W
[5] = molecular target: FHCS-2 (RSV strain A2) (UniProt P03420); assay: ELISA; F coated 10000 ng/ml; stored 37° C. 4 W
[6] = molecular target: FHCS-1 (RSV strain A2) (UniProt P03420); assay: ELISA; F coated 10000 ng/ml; stored 37° C. 4 W
[7] = molecular target: FHCS-4 (RSV strain A2) (UniProt P03420); assay: ELISA; F coated 5000 ng/ml; stored -80° C.
[8] = molecular target: FHCS-2 (RSV strain A2) (UniProt P03420); assay: ELISA; F coated 5000 ng/ml; stored -80° C.
[9] = molecular target: FHCS-1 (RSV strain A2) (UniProt P03420); assay: ELISA; F coated 5000 ng/ml; stored -80° C.
[10] = molecular target: FHS-23 (RSV strain A2) (UniProt P03420); assay: sandwich ELISA, AM14 coated, supernatant 1:10
[11] = molecular target: FHS-91 (RSV strain A2) (UniProt P03420); assay: sandwich ELISA, AM14 coated, supernatant 1:10
[12] = molecular target: FHM-14 (RSV strain A2) (UniProt P03420); assay: sandwich ELISA, AM14 coated, supernatant 1:10
[13] = molecular target: FHM-12 (RSV strain A2) (UniProt P03420); assay: sandwich ELISA, AM14 coated, supernatant 1:10
[14] = molecular target: FHS-31 (RSV strain A2) (UniProt P03420); assay: sandwich ELISA, AM14 coated, supernatant 1:10
[15] = molecular target: FHS-50 (RSV strain A2) (UniProt P03420); assay: sandwich ELISA, AM14 coated, supernatant 1:10
[16] = molecular target: FHS-9 (RSV strain A2) (UniProt P03420); assay: sandwich ELISA, AM14 coated, supernatant 1:10
[17] = molecular target: FHM-19 (RSV strain A2) (UniProt P03420); assay: sandwich ELISA, AM14 coated, supernatant 1:10
[18] = molecular target: FHS-14 (RSV strain A2) (UniProt P03420); assay: sandwich ELISA, AM14 coated, supernatant 1:10
[19] = molecular target: FHS-41 (RSV strain A2) (UniProt P03420); assay: sandwich ELISA, AM14 coated, supernatant 1:10
[20] = molecular target: FHS-19 (RSV strain A2) (UniProt P03420); assay: sandwich ELISA, AM14 coated, supernatant 1:10
[21] = molecular target: FHS-2 (RSV strain A2) (UniProt P03420); assay: sandwich ELISA, AM14 coated, supernatant 1:10
[22] = molecular target: FHS-15 (RSV strain A2) (UniProt P03420); assay: sandwich ELISA, AM14 coated, supernatant 1:10
[23] = molecular target: FHS-79 (RSV strain A2) (UniProt P03420); assay: sandwich ELISA, AM14 coated, supernatant 1:10
[24] = molecular target: FHS-73 (RSV strain A2) (UniProt P03420); assay: sandwich ELISA, AM14 coated, supernatant 1:10
[25] = molecular target: FHM-16 (RSV strain A2) (UniProt P03420); assay: sandwich ELISA, AM14 coated, supernatant 1:10
[26] = molecular target: FHCS-4 (RSV strain A2) (UniProt P03420); assay: ELISA; F coated 1250 ng/ml; stored -80° C.
[27] = molecular target: FHCS-2 (RSV strain A2) (UniProt P03420); assay: ELISA; F coated 1250 ng/ml; stored -80° C.
[28] = molecular target: FHCS-1 (RSV strain A2) (UniProt P03420); assay: ELISA; F coated 1250 ng/ml; stored -80° C.
[29] = molecular target: FHCS-4 (RSV strain A2) (UniProt P03420); assay: ELISA; F coated 78.13 ng/ml; stored -80° C.
[30] = molecular target: FHCS-2 (RSV strain A2) (UniProt P03420); assay: ELISA; F coated 78.13 ng/ml; stored -80° C.
[31] = molecular target: FHCS-4 (RSV strain A2) (UniProt P03420); assay: ELISA; F coated 156.3 ng/ml; stored -80° C.
[32] = molecular target: FHCS-2 (RSV strain A2) (UniProt P03420); assay: ELISA; F coated 156.3 ng/ml; stored -80° C.
[33] = molecular target: FHCS-4 (RSV strain A2) (UniProt P03420); assay: ELISA; F coated 1250 ng/ml; stored 37° C. 2 W
[34] = molecular target: FHCS-2 (RSV strain A2) (UniProt P03420); assay: ELISA; F coated 1250 ng/ml; stored 37° C. 2 W
[35] = molecular target: FHCS-1 (RSV strain A2) (UniProt P03420); assay: ELISA; F coated 1250 ng/ml; stored 37° C. 2 W
[36] = molecular target: FHCS-4 (RSV strain A2) (UniProt P03420); assay: ELISA; F coated 625 ng/ml; stored 37° C. 2 W
[37] = molecular target: FHCS-2 (RSV strain A2) (UniProt P03420); assay: ELISA; F coated 625 ng/ml; stored 37° C. 2 W
[38] = molecular target: FHCS-1 (RSV strain A2) (UniProt P03420); assay: ELISA; F coated 625 ng/ml; stored 37° C. 2 W
[39] = molecular target: FHCS-4 (RSV strain A2) (UniProt P03420); assay: ELISA; F coated 1250 ng/ml; stored -80° C.; remark: listed apart in the source

**Q.** AM14 monoclonal antibody was tested. Which OD value [1] did it give?
**A.** 0.008 OD and 0.007 OD

**Q.** And the OD value [2]?
**A.** 0.051 OD and 0.056 OD

**Q.** What about the OD value [3] of the same substance?
**A.** 0.034 OD and 0.039 OD

**Q.** And the OD value [4]?
**A.** 1.76 OD and 2.01 OD

**Q.** What about the OD value [5] of the same substance?
**A.** 2.11 OD and 2.23 OD

**Q.** What about the OD value [6] of the same substance?
**A.** 1.87 OD and 2.17 OD

**Q.** What about the OD value [7] of the same substance?
**A.** 0.404 OD and 0.294 OD

**Q.** What about the OD value [8] of the same substance?
**A.** 0.203 OD and 0.382 OD

**Q.** What about the OD value [9] of the same substance?
**A.** 0.158 OD and 0.167 OD

**Q.** What about the OD value [10] of the same substance?
**A.** 0.008 OD

**Q.** And the OD value [11]?
**A.** 0.008 OD

**Q.** What about the OD value [12] of the same substance?
**A.** 0.008 OD

**Q.** What about the OD value [13] of the same substance?
**A.** 2.13 OD

**Q.** And the OD value [14]?
**A.** 0.007 OD

**Q.** And the OD value [15]?
**A.** 2.3 OD

**Q.** And the OD value [16]?
**A.** 0.009 OD

**Q.** And the OD value [17]?
**A.** 0.367 OD

**Q.** What about the OD value [18] of the same substance?
**A.** 2.61 OD

**Q.** What about the OD value [19] of the same substance?
**A.** 0.006 OD

**Q.** What about the OD value [20] of the same substance?
**A.** 0.007 OD

**Q.** What about the OD value [21] of the same substance?
**A.** 0.012 OD

**Q.** What about the OD value [22] of the same substance?
**A.** 0.091 OD

**Q.** What about the OD value [23] of the same substance?
**A.** 0.008 OD

**Q.** And the OD value [24]?
**A.** 0.016 OD

**Q.** What about the OD value [25] of the same substance?
**A.** 0.26 OD

**Q.** And the OD value [26]?
**A.** 0.007 OD and 0.006 OD

**Q.** What about the OD value [27] of the same substance?
**A.** 0.017 OD and 0.02 OD

**Q.** And the OD value [28]?
**A.** 0.011 OD and 0.015 OD

**Q.** With Synagis® (antibody) as the substance, how does the OD value [29] read?
**A.** 0.008 OD

**Q.** And the OD value [30]?
**A.** 0.016 OD

**Q.** And the OD value [31]?
**A.** 0.021 OD and 0.017 OD

**Q.** And the OD value [32]?
**A.** 0.028 OD and 0.032 OD

**Q.** What about the OD value [33] of the same substance?
**A.** 0.535 OD and 0.54 OD

**Q.** What about the OD value [34] of the same substance?
**A.** 0.78 OD and 0.704 OD

**Q.** What about the OD value [35] of the same substance?
**A.** 0.478 OD and 0.493 OD

**Q.** And the OD value [36]?
**A.** 0.187 OD and 0.166 OD

**Q.** What about the OD value [37] of the same substance?
**A.** 0.211 OD and 0.227 OD

**Q.** And the OD value [38]?
**A.** 0.123 OD and 0.125 OD

**Q.** And the OD value [39]?
**A.** 0.321 OD and 0.328 OD
